Experimental data taken from patent US20020164609A1 (SCHERING, published 2002).

Assays:
[1] = target: T1, Flag-tagged human WSX-1/TCCR on Ba/F3 cells (F-hWSX-1) (human, UniProt Q6UWB1 33-636); assay: flow cytometry on BaF3 cells expressing F-hWSX-1, two hours incubation
T1 construct: Retroviral pMX construct expressed on the surface of Ba/F3 cells; also called hNR30; F-tagged WSX-1/TCCR
T1 sequence: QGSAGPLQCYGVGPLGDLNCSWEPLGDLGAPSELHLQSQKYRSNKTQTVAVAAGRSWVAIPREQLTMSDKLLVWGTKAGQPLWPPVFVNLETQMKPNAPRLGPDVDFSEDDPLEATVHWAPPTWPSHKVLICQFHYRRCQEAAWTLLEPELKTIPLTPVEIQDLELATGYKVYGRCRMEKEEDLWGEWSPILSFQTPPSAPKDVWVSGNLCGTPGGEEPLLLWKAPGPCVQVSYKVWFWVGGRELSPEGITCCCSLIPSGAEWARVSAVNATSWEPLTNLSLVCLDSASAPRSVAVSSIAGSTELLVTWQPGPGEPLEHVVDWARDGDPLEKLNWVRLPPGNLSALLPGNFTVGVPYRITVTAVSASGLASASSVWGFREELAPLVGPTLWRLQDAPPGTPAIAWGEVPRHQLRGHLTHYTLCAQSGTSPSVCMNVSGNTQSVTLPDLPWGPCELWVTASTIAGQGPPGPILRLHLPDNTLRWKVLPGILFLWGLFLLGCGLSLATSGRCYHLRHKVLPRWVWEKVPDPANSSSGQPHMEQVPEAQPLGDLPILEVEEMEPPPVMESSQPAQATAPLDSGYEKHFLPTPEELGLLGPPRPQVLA

[2] = target: T2, soluble human WSX-1/TCCR with C-terminal RGSH6 tag (shWSX-1-R) (human, UniProt Q6UWB1 33-516); assay: co-immunoprecipitation and western blot; F-hEBI3 alone against shWSX-1-R supernatant
T2 construct: Produced in HEK293T supernatants; also called shNR30R; soluble hWSX-1-R
T2 sequence: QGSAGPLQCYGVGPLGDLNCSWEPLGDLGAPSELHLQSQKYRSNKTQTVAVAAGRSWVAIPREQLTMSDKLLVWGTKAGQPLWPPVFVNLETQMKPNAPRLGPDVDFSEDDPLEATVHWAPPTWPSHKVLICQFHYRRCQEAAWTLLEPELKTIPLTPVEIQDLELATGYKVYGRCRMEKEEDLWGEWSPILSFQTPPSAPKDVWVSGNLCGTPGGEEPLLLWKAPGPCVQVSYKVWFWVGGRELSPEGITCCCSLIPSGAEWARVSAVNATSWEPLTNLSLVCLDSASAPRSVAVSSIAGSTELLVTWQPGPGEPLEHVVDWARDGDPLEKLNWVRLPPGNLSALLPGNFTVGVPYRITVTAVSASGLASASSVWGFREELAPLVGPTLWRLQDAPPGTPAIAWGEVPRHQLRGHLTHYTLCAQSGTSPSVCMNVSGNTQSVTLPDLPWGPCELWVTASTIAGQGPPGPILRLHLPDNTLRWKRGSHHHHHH
Experimental: The primary pricipitates were washed and then incubated with HEK293T cell supernatants containing shWSX-1-R. Secondary precipitates were separated by SDS-PAGE and subjected to western blot. Precipitaited proteins were visualized by ECL using antibodies against the respective protein tags.

[3] = target: T3, Flag-tagged mouse WSX-1 on BaF3 cells (F-mWSX-1) (mouse, UniProt O70394 25-623); assay: flow cytometry on mWSX-1-expressing BaF3 cells
T3 construct: whole, on cells; Retroviral pMX construct expressed on the surface of Ba/F3 cells
T3 sequence (looked up): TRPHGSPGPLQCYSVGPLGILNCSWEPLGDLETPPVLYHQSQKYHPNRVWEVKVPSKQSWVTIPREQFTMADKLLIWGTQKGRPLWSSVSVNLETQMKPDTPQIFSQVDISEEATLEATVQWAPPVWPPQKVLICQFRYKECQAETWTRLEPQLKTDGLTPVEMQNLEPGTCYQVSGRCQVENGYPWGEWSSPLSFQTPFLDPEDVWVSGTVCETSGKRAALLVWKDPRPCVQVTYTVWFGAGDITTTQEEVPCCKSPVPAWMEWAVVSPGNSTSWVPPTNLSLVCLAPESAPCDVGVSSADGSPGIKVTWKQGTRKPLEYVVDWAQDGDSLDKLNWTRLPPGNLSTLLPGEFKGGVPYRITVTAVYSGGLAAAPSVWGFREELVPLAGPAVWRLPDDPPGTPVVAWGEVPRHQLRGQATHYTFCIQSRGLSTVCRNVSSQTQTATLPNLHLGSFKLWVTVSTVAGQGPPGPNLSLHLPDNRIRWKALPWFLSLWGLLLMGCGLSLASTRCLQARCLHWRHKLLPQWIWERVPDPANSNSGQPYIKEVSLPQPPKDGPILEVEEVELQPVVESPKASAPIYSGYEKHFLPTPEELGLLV

B1: human EBI3-Ig fusion (hEBI3-Ig) (Fc fusion)
chain: RKGPPAALTLPRVQCRASRYPIAVDCSWTLPPAPNSTSPVSFIATYRLGMAARGHSWPCLQQTPTSTSCTITDVQLFSMAPYVLNVTAVHPWGSSSSFVPFITEHIIKPDPPEGVRLSPLAERHVQVQWEPPGSWPFPEIFSLKYWIRYKRQGAARFHRVGPIEATSFILRAVRPRARYYVQVAAQDLTDYGELSDWSLPATATMSLGK
notes: Secreted fusion protein; also called EB133-Ig (so in the source); not shown: Ig part from the pME18S-Ig vector
B1: no binding [1].

B2: Flag-tagged human EBI3 (F-hEBI3) (other)
chain: RKGPPAALTLPRVQCRASRYPIAVDCSWTLPPAPNSTSPVSFIATYRLGMAARGHSWPCLQQTPTSTSCTITDVQLFSMAPYVLNVTAVHPWGSSSSFVPFITEHIIKPDPPEGVRLSPLAERHVQVQWEPPGSWPFPEIFSLKYWIRYKRQGAARFHRVGPIEATSFILRAVRPRARYYVQVAAQDLTDYGELSDWSLPATATMSLGK
notes: Mature portion of human EBI3 cloned into pFlagCMV-1, produced in HEK293T cells; also called human Epstein-Barr virus-induced gene 3; not shown: N-terminal Flag tag from pFlagCMV-1
B2: no binding [2].

B3: mouse EBI3-Ig fusion (mEBI3-Ig) (Fc fusion, UniProt O35228 19-228, looked up)
chain: YTETALVALSQPRVQCHASRYPVAVDCSWTPLQAPNSTRSTSFIATYRLGVATQQQSQPCLQRSPQASRCTIPDVHLFSTVPYMLNVTAVHPGGASSSLLAFVAERIIKPDPPEGVRLRTAGQRLQVLWHPPASWPFPDIFSLKYRLRYRRRGASHFRQVGPIEATTFTLRNSKPHAKYCIQVSAQDLTDYGKPSDWSLPGQVESAPHKP
notes: mature; Secreted fusion protein; not shown: Ig part from the pME18S-Ig vector
B3: no binding [3].

B4: E-tagged mouse IL-D80 (mIL-D80-E) (ligand)
chain: FPTDPLSLQELRREFTVSLYLARKLLSEVQGYVHSFAESRLPGVNLDLLPLGYHLPNVSLTFQAWHHLSDSERLCFLATTLRPFPAMLGGLGTQGTWTSSEREQLWAMRLDLRDLHRHLRFQVLAAGFKCSKEEEDKEEEEEEEEEEKKLPLGALGGPNQVSSQVSWPQLLYTYQLLHSLELVLSRAVRDLLLLSLPRRPGSAWDS
notes: also called mp28-E; mouse p28; not shown: E-tag from the pCDM8-etag vector
B4: no binding [3].
